The record followed here is article PMC9982576, “Nuclear Fructose‐1,6‐Bisphosphate Inhibits Tumor Growth and Sensitizes Chemotherapy by Targeting HMGB1” (Advanced Science, 2023).

One assay deals with T1, HMGB1 A-box (aa1–83) (Homo sapiens, UniProt P09429).
T1 construct: A-box domain aa1-83, purified from HEK293 cells; assayed with synthetic C15 peptide (HMGB1 C-tail aa200-214)
T1 sequence (P09429 1-83): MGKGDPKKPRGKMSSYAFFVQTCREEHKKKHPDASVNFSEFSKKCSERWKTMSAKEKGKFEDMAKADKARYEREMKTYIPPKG
Description: ITC of A-box with C15 peptide, with or without F1,6P. It is filed as binding. The note with it: 0.2 mM F1,6P; 100 mM Hepes, 50 mM NaCl; disruption of the A-box - C-tail peptide interaction.

For assay [1], the target named is T2, HMGB1 (Homo sapiens, UniProt P09429).
T2 construct: full-length, expressed in and purified from human HEK293 cells; self-associates into oligomers
T2 sequence (P09429 1-215): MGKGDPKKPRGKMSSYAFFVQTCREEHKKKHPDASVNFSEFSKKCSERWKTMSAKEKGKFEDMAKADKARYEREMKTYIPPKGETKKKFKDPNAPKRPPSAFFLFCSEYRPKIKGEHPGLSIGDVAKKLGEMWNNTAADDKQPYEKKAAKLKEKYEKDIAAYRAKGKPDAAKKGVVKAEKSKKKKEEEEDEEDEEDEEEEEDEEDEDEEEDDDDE
Description: SPR, inhibition of free HMGB1 binding to chip-anchored DNA. To be noted: 100 mM Hepes, 50 mM NaCl; 25 °C; unmodified DNA. In general terms: SPR reads the build-up and loss of mass on a sensor chip optically.

Assay [2] has as its target T2, HMGB1. The assay is described as follows: SPR, inhibition of free HMGB1 binding to chip-anchored HMGB1. To be noted: 100 mM Hepes, 50 mM NaCl; 25 °C; HMGB1 self-association. From the text: SPR, inhibition of free HMGB1 binding to chip-anchored HMGB1 on HMGB1 | inhibitory efficiency of F1,6P on free HMGB1 binding to chip‐anchored HMGB1
In assay [3] the target is T2, HMGB1. The assay is described as follows: isothermal titration calorimetry. The format is binding. The note with it: 100 mM Hepes, 50 mM NaCl; single-site model; allosteric ligand. In general terms: ITC needs no label: the signal is the heat of the interaction.
Assay [4] concerns the target GFP(C)-HMGB1-K43/K44A-GFP(N) construct. The assay is described as follows: split-GFP fluorescence complementation in HEK293 cells (Cytation cell imaging reader). The note with it: each construct normalised to its own 0 mM value (1.0), read off a plot.
Assay [5] concerns the target T3, HMGB1 A-box (aa1–83), purified (UniProt P09429 1-83).
T3 construct: HMGB1 A-box, aa1-83; also called HMG A-box; source: HEK293 cells, expressed and purified
T3 sequence (looked up): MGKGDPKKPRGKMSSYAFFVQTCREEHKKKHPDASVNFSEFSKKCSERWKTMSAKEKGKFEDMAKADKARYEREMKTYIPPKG
The assay is described as follows: ITC; purified HMGB1 A-box in the cell titrated with free C-tail (15) peptide; 100 mM Hepes, 50 mM NaCl; with or without 0.2 mM F1,6P; single site binding model. To be noted: both partners purified.

For assay [6], the target named is T4, HMGB1 A-box K43/44A, purified (UniProt P09429 1-83, K43/44A | K43/44A).
T4 construct: HMGB1 A-box (aa1-83 as told for the wild-type A-box) with K43 and K44 changed to alanine; also called K43/44A A-box; source: HEK293 cells, expressed and purified
T4 sequence (looked up): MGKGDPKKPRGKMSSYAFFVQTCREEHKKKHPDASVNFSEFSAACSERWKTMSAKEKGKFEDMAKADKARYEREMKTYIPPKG
Described as above. The note with it: both partners purified.

Broadly, the IC50 is the concentration that gives 50% inhibition. A high value points to weaker potency in that assay. One may read the Kd as the equilibrium constant for the complex coming apart. Regarding `O=P(O)(O)OC[C@H]1OC(O)(COP(=O)(O)O)[C@@H](O)[C@@H]1O` (stereo partly drawn) [F1,6P], the “ITC of A-box with C15 peptide, with or without F1,6P” value at HMGB1 A-box (aa1–83) was “C15 peptide displayed good affinity for the A‐box, whereas the interaction was highly disrupted by F1,6P”. The IC50 at HMGB1 [1] was determined as 14.1 µM; at HMGB1 [2] it was 12.7 µM. At HMGB1 [3], this molecule returned a Kd of 28.6 µM.
In the case of “GFP(C)-HMGB1(A-B)-linker-HMGB1(C)-GFP(N) fusion protein K43A; K44A”, the response (relative fluorescence intensity) in assay [4] (1 mM F1,6P, parent: est. 0.83) worked out at 0.93; in assay [4] (5 mM F1,6P, parent: est. 0.53) it was 0.92; in assay [4] (10 mM F1,6P, parent: est. 0.38), 0.9.

B1: C15 peptide (HMGB1 aa200–214) (peptide, UniProt P09429 200-214, looked up)
peptide: EEDEEDEDEEEDDDD
notes: HMGB1 acidic C-tail, aa200-214; also called C-tail (15) peptide; C-tail (15); source: synthetic peptide
As for B1, the binding result in assay [5] and in assay [6] was “binds” in each case.
